B1: CR6261 (antibody, V domains shown)
VH: EVQLVESGAEVKKPGSSVKVSCKASGGPFRSYAISWVRQAPGQGPEWMGGIIPIFGTTKYAPKFQGRVTITADDFAGTVYMELSSLRSEDTAMYYCAKHMGYQVRETMDVWGKGTTVTVSS
VL: QSVLTQPPSVSAAPGQKVTISCSGSSSNIGNDYVSWYQQLPGTAPKLLIYDNNKRPSGIPDRFSGSKSGTSATLGITGLQTGDEANYYCATWDRRPTAYVVFGGGTKLTVLG
B2: CR6261 (antibody, V domains shown)
VH: B1 VH
VL: B1 VL

How the values were obtained:
189E10 [1] = molecular target: T1, 189E10 (influenza A H1N1 A/Brisbane/59/2007); assay: ELISA, coated CR6261, P. pastoris medium
262B9 [2] = molecular target: T2, 262B9 (influenza A H1N1 A/Brisbane/59/2007); assay: ELISA, coated CR6261, P. pastoris medium
146G7 [3] = molecular target: T3, 146G7 (influenza A H1N1 A/Brisbane/59/2007); assay: ELISA, coated CR6261, P. pastoris medium
189E10 [4] = molecular target: T1, 189E10; assay: ratio against parental SEQ ID NO: 6
262B9 [5] = molecular target: T2, 262B9; assay: ratio against parental SEQ ID NO: 6
146G7 [6] = molecular target: T3, 146G7; assay: ratio against parental SEQ ID NO: 6
189E10 [7] = molecular target: T1, 189E10; assay: ELISA signal over HTRF expression signal
262B9 [8] = molecular target: T2, 262B9; assay: ELISA signal over HTRF expression signal
146G7 [9] = molecular target: T3, 146G7; assay: ELISA signal over HTRF expression signal
s127H1-t2-cl18long = s127H1-t2-cl18long (influenza A virus H1N1 …, UniProt A8C8J4 18-529)

| Binder | CR6261 binding signal (189E10 [1]) | CR6261 binding signal (262B9 [2]) | CR6261 binding signal (146G7 [3]) | fold increase of ratio over parental H1 mini-HA (189E10 [4]) | fold increase of ratio over parental H1 mini-HA (262B9 [5]) | fold increase of ratio over parental H1 mini-HA (146G7 [6]) | ratio of CR6261 binding signal to HTRF signal (189E10 [7]) | ratio of CR6261 binding signal to HTRF signal (262B9 [8]) | ratio of CR6261 binding signal to HTRF signal (146G7 [9]) | EC50 (s127H1-t2-cl18long) |
| --- | --- | --- | --- | --- | --- | --- | --- | --- | --- | --- |
| B1 | 189000 | 94700 | 534000 | 1.74 | 1.66 | 1.71 | 10.3 | 9.89 | 10.2 |  |
| B2 |  |  |  |  |  |  |  |  |  | 0.139 µg/mL |

From patent US20170189519A1 (Janssen / Centocor, published 2017)
